Drawing on publication doi:10.1101/2021.12.25.474155, this text covers Kd for two sequences.

This data set concerns the target NCAP (SARS-CoV-2) (UniProt P0DTC9). Nature of the data set: EMSA.

The sequence “GGAUUAAAGGUUUAUACCUUCCCAGGUAACAAACCAACCAACUUUCGAUCUCUUGUAGAUCUGUUCUCUAAACGAACUUUAAAAUCUGUGUGGCUGUCACUCGGCUGCAUGCUUAGUGCACUCACGCAGUAUAAUUAAUAACUAAUUACUGUCGUUGACAGGACACGAGUAACUCGUCUAUCUUCUGCAGGCUGCUUACGGUUUCGUCCGUGUUGCAGCCGAUCAUCAGCACAUCUAGGUUUCGUCCGGGUGUGACCGAAAGGUAAGAUGGAGAGCCUUGUCCCUGGUUUCAACGAGAAAACACACGUCCAACUCAGUUUGCCUGUUUUACAGGUUCGCGACGUGCUCGUACGUGGCUUUGGAGACUCCGUGGAGGAGGUCUUAUCAGAGGCACGUCAACAUCUUAAA [F406]” displayed a Kd of 1.2 nM. For “GGCUGUGUGGCUGUCACUCGGCUGCAUGCUUAGUGCACUCACGCAGUAUAAUUAAUAACUAAUUACUGUCGUUGACAGGACACGAGUAACUCGUCUAUCUUCUGCAGGCUGCUUACGGUUUCGUCCGUGUUGCAGCCGAUCAUCAGCACAUCUAGGUUUCGUCCGGGUGUGACCGAAAGGUAAGAUGGAGAGCCUUGUCCCUGGUUUCAACGAGAAAACACACGUCCAACUCAGUUUGCCUGUUUUACAGGUUCGCGACGUGCUCGUACGUGGCUUUGGAGACUCCGUGGAGGAGGUCUUAUCAGAGGCACGUCAACAUCUUAAA [F323]” the value was 29 nM.

Usually Kd stands for the equilibrium constant for the complex coming apart.
